{
  "source": "the DeepSol protein solubility set",
  "data": [
    {"assay": "soluble on expression in E. coli; label from the status in PepcDB or PDB records", "values": [
      {"sequence": "MGSDKIHHHHHHMNSKLSLSTKLSSSGKTQLAEYFATPPFKVITLPSYDDAWANGLNAMQMSSSPGVLAGDLLEIDISLAKLTALSLNTQAFTRVQAMNEGDSAMQTTHILLAENSRLFYLPHPLVLHRDSVFKQQTQIEMGEQSELIYGEIVAIGRVLNDERFAFRQFSSHLKIYALQNDGKKRPLVSDCIQWLPSKMNLTALSQMENYSHQGSLTYLNLAKNNAEIKQQVQALQQQSTEEKDLLIGISQLNEYGLMVRVLGCRAEANSEII", "soluble on expression in E. coli": "not soluble"},
      {"sequence": "MSLESPISEKKPPVIVQEVEQKPEVVEKENILIEQEKEVIKPLDVPLILQKPELMRGCEVTSLAMVLQFSGVKVDKMELASKIHYVPFQSNGLKGNMHKGFIGDMATFDKPGLGVFVEPILELAKLYVPDEKVMNLSYKEPEHIYEAIDRGLPVWVLTNARFKRLPDNQFYTWRTDTGEMKVTYHQHSVVVTDYDDQYVYINDPLKTDKHRAINRNNFEQSWIQMGRQAMTISIEGHHHHHH", "soluble on expression in E. coli": "not soluble"},
      {"sequence": "MDSKLIGKICKSIRYRDYETAIFLAACLLPCKPEYRMLMSIVLYLNGEYTRALFHLHKLNTCTSKYYESLCYKKKKDYKKAIKSLESILEGKVERDPDVDARIQEMFVDPGDEEFFESLLGDLCTLSGYREEGIGHYVRSFGKSFLFSPVENLLLENKVPQKRDKENVRQTGRRGIEEEYVSDSIEFHESLSPSLVKKYMEHVPGIGSYFISNAARRYFNLGMNDKSKACFELVRRKDPMFL", "soluble on expression in E. coli": "soluble"},
      {"sequence": "MGNYFPYAFEDKRYHTWNYHLKNKFGQKIFKVALDGGFDCPNRDGTVAHGGCTFCSAAGSGDFAGNRAEPIEVQFKKIKERMHEKWSEGQYIAYFQAFTNTHAPVEVLKEKYEPVLKEDGVVGLSIATRPDCLPDDVVEYLAELNQRTYLWVELGLQTVHQSTSDLINRAHDMQTYYDGVTKLRKHNINVCTHIINGLPGENYDMMMETAKEVAQMDVQGIKIHLLHLLKGTPMVKQYEKGMLEFMSQQDYTNLVCDQLEVLPPEMIVHRITGDGPIDLMVGPMWSVNKWEVLNEIDNELARRNSYQGKMNKQSIQS", "soluble on expression in E. coli": "not soluble"},
      {"sequence": "MGSDKIHHHHHHMAKSALRVLEIMEFVATHKAGCATHTEISQALGIPKSSLTALLTDLQRPGYLELDRETGRYAIGSQVMFLAHAYLRNLNIVRLGTPVVHDVFLKLNVYTTMVIPKGDMCLVVCSESLPSPLAHSLSIGQHIPMLHSALGRAILAFLEPEEVERFLHDYTPTPYTDRTKTGIEEVRKALAQVRKAGFAHMQGEYLPGIIGIAVPVFNLENRPIAAIGIGIPAVEGTTEFEKRICKQLLHSADTLSRRLGAKLKPTPSKLLRKGEEE", "soluble on expression in E. coli": "not soluble"},
      {"sequence": "MKRVLIVGATGTIGGVVRQTLLNETDNQLTLFARSANRLKTSERESVIAGDVTKDSDLDKAIAGQDVVFVALSGSLGRFAQKIVAAMDRNKVSRLLFITSMGIYDEIPASVGASGNLSSNPMLRTYREAADVVEASDLNYTLIRPGWFTGGPVDYEITKKGEPFGGHDVSINSIADFVKNAIVDNDYYAHDSVGLNAK", "soluble on expression in E. coli": "not soluble"},
      {"sequence": "MSAFPVHAAFEKDFLVQLVVVDLNDSMDQVAEKVAYHCVNRRVAPREGVMRVRKHRSTELFPRDMTIAESGLNPTEVIDVVFEE", "soluble on expression in E. coli": "soluble"},
      {"sequence": "MVPSEGTWVYVVNLRRVYWGRRTRRAIRAVRMVREFVRRHTKADEVVIDNELNNYIWSRSREKPPARVKIIVSIREEEPEEGGERIRKAVVRLAGRKLRPGRYKG", "soluble on expression in E. coli": "soluble"},
      {"sequence": "GMINQERLVNEFMELVQVDSETKFEAEICKVLTKKFTDLGVEVFEDDTMAVTGHGAGNLICTLPATKDGVDTIYFTSHMDTVVPGNGIKPSIKDGYIVSDGTTILGADDKAGLASMFEAIRVLKEKNIPHGTIEFIITVGEESGLVGAKALDRERITAKYGYALDSDGKVGEIVVAAPTQAKVNAIIRGKTAHAGVAPEKGVSAITIAAKAIAKMPLGRIDSETTANIGRFEGGTQTNIVCDHVQIFAEARSLINEKMEAQVAKMKEAFETTAKEMGGHADVEVNVMYPGFKFADGDHVVEVAKRAAEKIGRTPSLHQSGGGSDANVIAGHGIPTVNLAVGYEEIHTTNEKIPVEELAKTAELVVAIIEEVAK", "soluble on expression in E. coli": "soluble"},
      {"sequence": "MHHHHHHSSGVDLGTENLYFQSMPFPEGKVLDDMEGNQWVLGKKIGSGGFGLIYLAFPTNKPEKDARHVVKVEYQENGPLFSELKFYQRVAKKDCIKKWIERKQLDYLGIPLFYGSGLTEFKGRSYRFMVMERLGIDLQKISGQNGTFKKSTVLQLGIRMLDVLEYIHENEYVHGDIKAANLLLGYKNPDQVYLADYGLSYRYCPNGNHKQYQENPRKGHNGTIEFTSLDAHKGVALSRRSDVEILGYCMLRWLCGKLPWEQNLKDPVAVQTAKTNLLDELPQSVLKWAPSGSSCCEIAQFLVCAHSLAYDEKPNYQALKKILNPHGIPLGPLDFSTKGQSINVH", "soluble on expression in E. coli": "soluble"},
      {"sequence": "MGSDKIHHHHHHMSIARLREFVSDLTDIVGDDLHEAALLDRMRAPMTRLLAKDDWLPDAFAQPHPEFYQQYLLHCDPKQRFSVVSFVWGPGQKTPIHDHTVWGMIGMLRGSEHSTRFEVVGPDQPLRVAQTDVLEEGGIDVVSPSVGDVHQVSNVYDDRVSISIHVYGANIGRVRRHVYNGETGGVKEFVSGFSSSVVPNLWNAN", "soluble on expression in E. coli": "not soluble"},
      {"sequence": "MVKIHPDLTTSGAGEETSSPYLTTEQESFTIWMKSLVFNTNGCTVFDSKGNIIYRVDNYNSKSCREVYLMDLSGHVLFTLRRQKFGLFKTWEGYRSSSATVESTTKLEYFRVKNNVFQVPNKDSSSSYRVNAGSCRNDEQYCYKMVTRGSSLAIEDNCGKLLAEVKRKQSINGLKLGDDVLTMMVESQVDHSFIIGLVLAHSLINCIL", "soluble on expression in E. coli": "soluble"},
      {"sequence": "SAEDELVEIVPNMNMEQLNFISGDFGRFIPQIPTKVPLWLAVALKRRGKCTFRPPGWMSVDNLTQILEAERESQSTFQALPFSYVEIARLLFDHARDDIPDMYMVRSLVEDIRDVRLHKLETNLGSFQGTSAVKISNVSAMEVNIVRPFVIRALEAFYKHDKPEADVDRDTRSSRQQRETNNEPRRPLRQR", "soluble on expression in E. coli": "soluble"},
      {"sequence": "MGSDKIHHHHHHMVATPNSSYISPEDYLKGEETSPIKHEYRQGQVYAMAGASNAHVIISLNIASMLRNHLRGSGCQAYISDTKVHIESINVYYYPDVTVSCDQRDRAFNNFLRYPCLIVEVLSPTTEAFDRGDKFADYRQMESLQEYVLISQTRLNVECFRRNPESQWVLYPYGKEDIIHLASVDFRCAVADFYEDVTFESL", "soluble on expression in E. coli": "not soluble"},
      {"sequence": "MDQNTTPAPGLRETKKRETRQLISDHATRLFIERGFEHTTIAEIADAARVAKKTVTNYFPRKEDLALDHQDEFVAALAATVTARGAGETPLTALRHAFLAAVAAQDPVAGFAGQAFTRMIADSPTLTACLRGLHDRREEALTAALAGTTDTPPDDITPRTAAALLGGVHRVLFNRIQELTLAGRATPEIAEVLAREAPRAFDLLTPALAEYGRRP", "soluble on expression in E. coli": "not soluble"},
      {"sequence": "MSLAYTKKKYTPKTKEQIKEETKEIMDKVLTDITKYYRSPEDMLELANFMAKFSNYSPKNMQLIRSQFENAYACANFKAFKDAGFHVNKGETAMKVFHPYVKEYVRDPRTKLAIPLGKLTEEQKKQVKNGELKVEKQTNYYLKATAFDISQTNAKPEDLPKIFPNRQFNFEINDEGHHHHHH", "soluble on expression in E. coli": "not soluble"},
      {"sequence": "DIVLTQSPSSLAVSLGQRATISCRASQSVSTSSFRYMHWYQQKPGQPPRLLIKYASNLESGVPARFSGSGSGTDFTLNIHPVEEEDTATYYCQHSWEIPYTFGGGTKLEIKRADAAPTVSIFPPSSEQLTSGGASVVCFLNNFYPKDINVKWKIDGSERQNGVLNSWTDQDSKDSTYSMSSTLTLTKDEYERHNSYTCEATHKTSTSPIVKSFNRNEC", "soluble on expression in E. coli": "soluble"},
      {"sequence": "MAHFGKLALSVTAAAVLALSAQARDQIKMAGSSTVYPFSSYVAEEFGATTGNKTPVVESLGTGGGFKVFCAGDGLDTTDIANASRPIKKSEFDNCVANGVTDITGVMIGYDGISIAQSKANAAINFKIEHLFLALAEEVPVDGKLVKNPYKTWNQVDASLPNRPIVVYGPPTTS", "soluble on expression in E. coli": "not soluble"},
      {"sequence": "MSVFSLKIDIADNKFFNGETSPLFSQSQAKLARQFHQKIAGYRPTPLCALDDLANLFGVKKILVKDESKRFGLNAFKMLGGAYAIAQLLCEKYHLDIETLSFEHLKNAIGEKMTFATTTDGNHGRGVAWAAQQLGQNAVIYMPKGSAQERVDAILNLGAECIVTDMNYDDTVRLTMQHAQQHGWEVVQDTAWEGYTKIPTWIMQGYATLADEAVEQMREMGVTPTHVLLQAGVGAMAGGVLGYLVDVYSPQNLHSIIVEPDKADCIYRSGVKGDIVNVGGDMATIMAGLACGEPNPLGWEILRNCATQFISCQDSVAALGMRVLGNPYGNDPRIISGESGAVGLGVLAAVHYHPQRQSLMEKLALNKDAVVLVISTEGDTDVKHYREVVWEGKHAVAP", "soluble on expression in E. coli": "not soluble"},
      {"sequence": "MKTPSLILMTIILCNLSIPINAQILTSRQQKEDFDTLYSLLHQVHPDLFVYQTQKEFEKKHDSIYCLLNKERNLSDFYFIVSPFVASVKDGHTNFTIPATQDRIDYLNNGGLTLPLRLKIVENKILVDFPLISCSIQENDEIICMNNINSQTILSQLYLLLGAEKGNAIKENQLTSYLSTLLWYKYNWGEKYDFTIKRGKKIWKESLNGISQADAFPVLKARLGKSLPQFVYTLSPDKQTATLQIMNLYQLPQLKQFCDSVFSVINREHVPNLVIDVRNNKGGSSAGVDMLLSYLSHDAYILYIKTDLKISSYSKRYNEQKHPETYEEIKNLPDGSLFAIRDSFVEGNRDKADIYKGSVTVLVNESTYSGASTFASAIKKSHAGKVLGETGCPTVYFGNYMSFTLPNSRLEYYISLNKFYE", "soluble on expression in E. coli": "not soluble"},
      {"sequence": "MLHTTDFSDIFSSDYSSKVSFKKGDIIHSFKDYEKKPPQIGVILEGTAVLEGPTNEGRWMINALISENAIFGMESLLETKTAPELTEYRVRALENGRALFIDREFFLNYLYANPHFFHLVLDDVIVRYLFTAKNYKNINQPPIIKVTRIFVEIIELLNLHQTEGPIVLPSYITQTFLADYCRSSRARITESLEELLVNGLLASKKPITISSHEKLLDQIDSFQTGNGLLTK", "soluble on expression in E. coli": "not soluble"},
      {"sequence": "MGSDKIHHHHHHMTRKFGEIAFTPEVQAAQEERGSRQTYDRYIANGPANDTITPNIAKFIAQLEGFYLGTVSSNGYPYIQFRGGSPGFLKVLDEKTLGFADFSGNLQYITVGNLSSNDKAFLFLMDYRHRQRIKIWGRAEYIEGESSLLEQVRVADYPAQVERAILFHVEATSENCPQHIPVRYSEREVKAMMAPLENRIAELEQQLSEQNSSSKTGKQLPSRD", "soluble on expression in E. coli": "not soluble"},
      {"sequence": "MSLIINNIALHFLSKKEETGEVVLRLGPENAEFAQENAKVTNFVDGLHAIYNAKGSKAYGSFSSMPSEGDSARFVDLMESYLTEQQNFYDFSVQAGNVLKNEIEKYDIEETGYFVICHYEYMGGRYLFVAVIPVSEHYSVDGELNISAAQHLDTNKLQLAARIDLFDYKDNSQGNRYISFVKGRAGRKVSDFFLDFLGCEEGLNSKEQTQTLVQAVEDYVSVNQLDPAEKQKTRKDLLSYCKEQKASSQDVSLQEVGKVIESAGTEQDFYQFCQTQSYPIEESFPHEQAVVNKITKYSGYGNGISLSFERSHFGEDVVYNPHNDSLIIYKVPPNLKEQLMALLDSEKVETDLEHHHHHH", "soluble on expression in E. coli": "not soluble"},
      {"sequence": "MKLTLMFREYCSLCHKMRDELKPFQDEYGFGLEVVDVDENPVLEEKYNELVPVLLAGDEEICHWFLDEDRLKQFLER", "soluble on expression in E. coli": "not soluble"}
    ]}
  ]
}
